Source: the nanobody polyreactivity screen of Harvey et al. (2022)

Assay: yeast display, Sf9 membrane polyspecificity reagent, FACS + sequencing; frameworks hold sequencing errors
How it was run: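 In a synthetic yeast display library (Saccharomyces cerevisiae BJ5465), nanobody expression was induced with galactose for 36–48 hours. FACS gates were set low and high (top ~1%) using anti-HA fluorescence for expression and streptavidin fluorescence for binding of the Sf9 membrane reagent. Each polyreactivity label is drawn from the gate of origin.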

| Sequence | polyreactivity (PSR sort gate) |
| --- | --- |
| QVQLVESGGGLVQAGGSLRLSSAASGRTSYVYAMGWYRQEPGKERELVAVITRRGGSTYYADSVKGRFTISRDNAKNTVYLQMNSLKPEDTAVYYCNAAYTTWRRGPMNYWGQGTQVTVSS | high polyreactivity |
| QVQLVESGGGLVQAGGSLRLSSAASGSIFAYNDMGWYRQAPGKERELVAAITWSGDSTYYADSVKGRFTISRDNAKNTVYLQMNSLKPEDTAVYYCATDPLFKTSTRWKYDYWGQGTQVTVSS | low polyreactivity |
| QVQLVESGGGLVQAGGSLRLSSAASGSIFKYNAMGWYRQAPGEERELVAAIRWSGGSTYYADSVKGRFTISRDNAKNTVYLQMNSLKPEDTAVYYCAAEYFNQNTRQGYDYWGQGSQVTVSS | low polyreactivity |
| QVQLVESGGGLVQAGGSLRLSSAASGSIFKYYAMGWYRQAPGKERELVATISSVGSTNYADSVKGRFTISRDNAKNTVYLKMNSLKPEATAVYYCNARIGSRSYAWISTRYDYWGQGTQVTVSS | high polyreactivity |
| QVQLVESGGGLVQAGGSLRLSSAASGSIFLYNAMGWYRQAPGKERELVAAISGSGGRTNYADSVKGRFTISRDHAKNTVYLQMNSLKPEVTAVYYCAAGYHVFRLGYARIPLYDYWGQGTQVTVSS | low polyreactivity |
| QVQLVESGGGLVQAGGSLRLSSAASGSIFWHYAMGRYRQAHGKERQLVAGISTRGGITYFADSVKGRFTISRDNAKNTVYLQMNSLKPEDTAVYYCNGVLFFQWFWTYDDYWGQGTQVTVSS | low polyreactivity |
| QVQLVESGGGLVQAGGSLRLSSAASGSIIKYYAMGWYRQAPGKERELVAAINKSGGTTYYADSVKGRFTISRDNAQNPVYLQMNSLKPEDTAVYYCATDNTVVYQPGNMDFWGQGTQVTVSS | low polyreactivity |
| QVQLVESGGGLVQAGGSLRLSSAASGSILPLYAMGWYRQAPGKERELVADISWSGGDTYYADSVKGRFTISRDKAKNTVYLQMNSLKPEDTAVYYCNSRLDYSTYESSPVTRKRVYWGQGTQVTVSS | low polyreactivity |
| QVQLVESGGGLVQAGGSLRLSSAASGSILWQYAMGWYRQAPGTERELVAAMTYSGGSTHYADSVKGRFTISRDNAKNTVYLQMNSLKPEDTAVYYCAAGYWYRYAALRYDHWGQGTQVTVSS | low polyreactivity |
| QVQLVESGGGLVQAGGSLRLSSAASGSTFGYYAMGWYRQAPGKERELVAVIRSRTGDTNYADSVKGRFTISRDNAKNTVYLQMNSQKPEDTAVYYCNAALWYGSTIYSYRYGYWGHGTQVTVSS | high polyreactivity |
| QVQLVESGGGLVQAGGSLRLSSAASGSTFRYNALGWYRQAPGKERELVAAISSSGGSTRYADSVKGRFTISRDNEKYTDYLQMNSLKPEDTAVYYCDVRFYDWRYYYWGQGTQVTVSS | high polyreactivity |
| QVQLVESGGGLVQAGGSLRLSSAASGSTFVWYAMGWYRQAPGKERELVASISGSGGRTYYADSVKGRFTISRDNAKNTVYLQMNSLKPEDTAVYYCAAYYRKTGYDYWGQGTQVTVSS | high polyreactivity |
| QVQLVESGGGLVQAGGSLRLSSAASGSTFYWYTMGWYRQAPGKERELVARISKRGGSTYYADSVKGRFTISRDNAKNTVYLQMNSLKPEDTAVYYCNATSRTVGFGYWGQGTQVTVSS | high polyreactivity |
| QVQLVESGGGLVQAGGSLRLSSAASGSTFYYYAMGWYRQAPGKERELVATISRSTARTFYADSVKGRFTISRDNEKNTVYLQMNSLKPEDTAVYYCAATSYVSVYPSYYRFGTYGYWGQGTQVTVSS | high polyreactivity |
| QVQLVESGGGLVQAGGSLRLSSAASGSTSRYYDMGWYRQSPGKVRELVAAITWSGGTTYYADSVKGRFTISRDNAKNTVYLQMNSLKPDDPAVYYCAADASYTYYEFVYWGQGTQVTVSS | low polyreactivity |
| QVQLVESGGGLVQAGGSLRLSSAASGYIFTPYAMGWYRQAPGKERELVAAISSSTVRTFYADSVKGRFTISRDNAKNTVYLQMNSLKPEDTAVYYCAARGYWGQGTQVTVSS | high polyreactivity |
| QVQLVESGGGLVQAGGSLRLSSAATGSIFRGNAIGWYRQAPWKELELVASISYSRGSTYYADSVKGRFTISRDNEKNTVYLQMNSVKPEETAVYYCARDYDAAYYLSEYIRSVEFDYWGQGTQVTVSS | low polyreactivity |
| QVQLVESGGGLVQAGGSLRLSSADSGRTFWDNTMGWYRQAPGKERELVAAISGGDSTYYADSVKGRFTISRDNAKNTVYLQMNSLKPEDTAVYYCAAAYATPTLYYYWGQGTQVTVSS | low polyreactivity |
| QVQLVESGGGLVQAGGSLRLSSADSGRTFYGNAMGWYRQSPGKERELVAAISKRGGNTYYADSVKWRFTISRDNAKNTVYLQMNSLKPEDTAVYYCARQARTPSSWYIYDSWGQGTQVTVSS | high polyreactivity |
| QVQLVESGGGLVQAGGSLRLSSADSGSIFVYNDMGWYRQAPGKERELVARIDWSGDRTYADSVKGRFTISRDNAKNTVYLQMNSLKPEDTAVYYCNADEWRWDEIIPYAVDYCGQGTQVTVSS | low polyreactivity |
| QVQLVESGGGLVQAGGSLRLSSAGSGSTLGFNAMGWYRQAPGKEREFVAGNSASGSSTYFADSVKGRFTISRDNAKNTVYLHINSLKTEDSAVYYFYARVRVRLGRNWSTYYYWGQGTEVTVSS | high polyreactivity |
| QVQLVESGGGLVQAGGSLRLSSASSGNILQGNAMGSYRQAPGKEMELVAAITSDGSTYADSVKGRFTISRDNAQNTVYLQMNSLKPEDTAVFYCNADGITSLPVTALDYWGQGTQVTVSS | low polyreactivity |

| Sequence | polyreactivity (PSR sort gate) |
| --- | --- |
| QVQLVESGGGLVQAGGSLRLSSSASGSIFASNAMGWYRQEPGKERELVAAINSGDSTNYADSVKGRFTISRDNAKNTVYLQMNSLKPEDTAVYYCNAEYRYYQKTPVLYTNVEYDYWGQGTQVTVSS | low polyreactivity |
| QVQLVESGGGLVQAGGSLRLSWAASGFTFPAYPMGWYRQAPGKERELVASISSSGRTNYADSEKGRFTISRDNAKNTVYLEMYSLKPEDTAVYYCAALLKQRSTSYGYWGQGSQVTVSS | high polyreactivity |
| QVQLVESGGGLVQAGGSLRLSWAASGGTFYFNAMGWYLQAAGKEWELVATIRYSGGSTYYADSVKGRFTISRDNAKNTAYLQMNSLKPADTAVYYCNARPRYLSPYRPFKYNYWGQGTQVTVSS | high polyreactivity |
| QVQLVESGGGLVQAGGSLRLSWAASGITFYVYAMGWYRQAPGKERELVAAISRRGGSTSYADSVKGRFTISRDNAKNTVYLQMNSLKPEDTAVYYGAAGPFYGGIVRRYDYWGQGTQVTVSS | low polyreactivity |
| QVQLVESGGGLVQAGGSLRLSWAASGLTFETYVMGWYRQAPGKERELVAAISSSGRTYYADSVKGRFTISRDNAKNTVYLQMNSLKPEDTAVYYCAARGREFGYWGQGTQVTVSS | high polyreactivity |
| QVQLVESGGGLVQAGGSLRLSWAASGRIFYGYTMGWYRQAPGKERELVASITIRGSRTYYADSVKGRCTISRDNAKNTVYLQINSLKPEDTAVYYCAADFVPARTVHRYDYWGQGTQVTVSS | low polyreactivity |
| QVQLVESGGGLVQAGGSLRLSWAASGRIPYNAMGWYRQAPGKERELVAAISRSGTRTYYADSVKGRFTISRDNAKNTVFFQMNSLKPEDTAVYYCAAEYTRSFYIYYRFGYWVQGTQVTVSS | high polyreactivity |
| QVQLVESGGGLVQAGGSLRLSWAASGRLFDGYAMGWYRQAPGTERELVATISSSGGATYYADSVKGRFTISRDNAKNTVYLQMNSLKPEDTAVYYCATAGSVSHWYSYFAFWERDYWGQGTQVTVSS | low polyreactivity |
| QVQLVESGGGLVQAGGSLRLSWAASGRTFGVYAMGWYRQAPGTERELVATITRSGGRTYYADSVKGRFTLSRDTAKNTVYLQMNSLKPEATAVYYCNAGHGSLRYNYWGQGTQVTVSS | high polyreactivity |
| QVQLVESGGGLVQAGGSLRLSWAASGRTFKSNAMGWYRPAPGKERELVAAISWGGGSTYYADSVKGRFTISRDNAKNTVYLQMNSLKPEDTAVYYCARRDIYGSYGFYTGGVDYWGQGTQVTVSS | low polyreactivity |
| QVQLVESGGGLVQAGGSLRLSWAASGRTFNRYVMGWYRQAPGKERELVAAISRSGTSTYYADSVKGRFTISRDNAKNTVYLQMNSLKPEDTAVYYCAREYQTVSFKNYYWGQGTQVTVSS | high polyreactivity |
| QVQLVESGGGLVQAGGSLRLSWAASGRTLKYNAMGWYRQAHGKERELVSAISYSGSSTYYADSVKGRFTISRDNAKNTVYLQMNSLKPEDTAVYYCNTARPTAAYDYWGQGTQVTVSS | low polyreactivity |
| QVQLVESGGGLVQAGGSLRLSWAASGSIFDENAMGLSRQAPGKERELVAAISRSTGSTYYADSVKGRFTISRDKAKNTVYVQMNSLKPEDTAVYYCNALTYLRGPPWYTLDYWGQGTQVTVSS | low polyreactivity |
| QVQLVESGGGLVQAGGSLRLSWAASGSIITSNGMGWYRQAPGKERELVAAITSGTSTYYADSVKGRFTISRDNAKNTVYLQMNSLKPEDTAVYYCAAGRWWVYRYARYYYWGQGTQVTVSS | high polyreactivity |
| QVQLVESGGGLVQAGGSLRLTCAASASNFVSYPMGWYRPAHGKERELVAAITSAGTTYYAYSVKGRFTISRDNAKNTVYLQMNTLKPEDTAVYYCNTDASFKRTRVSPETEYGYWGQGTQVTVSS | low polyreactivity |
| QVQLVESGGGLVQAGGSLRLTCAASGFIFGTYAMGWYRLSPGKERELVAAISSGGSTYYAYSVKGRFTISRDNAKYTVYLQMNSLKPEDTAVYYCAKEGGTYRIFNYWGQGTQVTLSS | low polyreactivity |
| QVQLVESGGGLVQAGGSLRLTCAASGFIFRKYTMGWYRQAPGKERELVATLDSSGGSTYYADSVKGRFTISRDNAKNTVYLQMNSLKPEDTAVYYCNADLRELSPWYWYSGEMDYWGQGTQVTVSS | low polyreactivity |
| QVQLVESGGGLVQAGGSLRLTCAASGFIFRSYAMGWYRQAPGKERELVAVISRRGVNTHYADSVKGRFTISRDNAKNTVYLQMNSLKPEDTAVYYCAKGLTALGDYWGQGTQVTVSS | high polyreactivity |
| QVQLVESGGGLVQAGGSLRLTCAASGFIFSKNAMGWYRQPPGKERELVAAIDTSGSSTYYAYSVKGRFTISRDNAKNSVYLQMISLKPEDTAVYYCNRDDYFFSRFDYWGQGTQVTVTS | low polyreactivity |
| QVQLVESGGGLVQAGGSLRLTCAASGFIFVRNAMGWYRQAPGKERDLVAAISSRGGRTYYADSVKGRFTISRDNAKYTVYLQMNRLKPEDTAVYYCNADRDTQGDGYDYWGQGTQVTVSS | high polyreactivity |
| QVQLVESGGGLVQAGGSLRLTCAASGFTFFVYAMGWYRQAPGKERELVASITFRSGTTYYADSVKGRFTISRDNAKNTVYLQMNSLKPEDTAVYYCAADSRRSSRGYGYYYWGQGTQVTVSS | high polyreactivity |
